The target in the test is TGFβRII (UniProt P37173). Kind of test: anti-FLAG IP, TGFβRII western blot. Conditions: reference: wild-type TGFβRI-FLAG; sites Y182.

TGFβRI (from UniProt P36897) Y182F: the “binding against the reference” value is given as “weaker”.

Source of the values: publication PMC9091212.
